# Source: article PMC9605988, “Juxtaposition of Bub1 and Cdc20 on phosphorylated Mad1 during catalytic mitotic checkpoint complex assembly” (Nature Communications, 2022)
# Entries after “also recorded” stand apart in the source; their conditions may differ.
# T1: Mad1CTD (unphosphorylated) (Homo sapiens, UniProt Q9Y6D9)
# T1 construct: the C-terminal domain of Mad1 (residue 597–718); made in house
# T1 sequence (Q9Y6D9 597-718): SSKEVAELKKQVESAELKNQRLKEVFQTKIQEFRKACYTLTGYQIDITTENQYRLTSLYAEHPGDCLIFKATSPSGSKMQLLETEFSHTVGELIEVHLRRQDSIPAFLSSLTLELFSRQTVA
# Columns and labels:
# [1] = tested on: AF488-Bub1CD1:Mad1CTD complex (unphosphorylated); assay: Fluorescence anisotropy: Cdc20N titrated into preformed AF488-Bub1CD1:Mad1CTD complex; format: binding, human
# Procedure: (§1) All reactions were completed in a buffer of 25 mM HEPES pH 7.75, 1 mM TCEP, 100 mM NaCl, 0.05% (v/v) Tween-20. […] Measurements were performed with a PheraStar plate reader FSX plate reader (BMG Labtech) using an optic module for λex = 485 nm, λem = 520 nm. Reactions were carried out in a total volume of 40 μl at 25 °C in a black, flat-bottom, non-binding surface 384-well plate (Corning). All experiments were performed as technical triplicates and data were analysed in PRISM 9.3.1 (GraphPad Software).
# [2] = tested on: AF488-Bub1CD1:pMad1CTD complex; assay: Fluorescence anisotropy: Cdc20N titrated into preformed AF488-Bub1CD1:pMad1CTD complex; format: binding, human; settings: preformed AF488-Bub1CD1:pMad1CTD
# [3] = biological target: T1, Mad1CTD (unphosphorylated); assay: SEC-MALS, Cdc20N with unphosphorylated Mad1CTD; format: binding; settings: 1:1.2 ratio Mad1CTD dimer to Cdc20N
# Procedure: (§2) Size-exclusion chromatography coupled with multi-angle static light scattering (SEC-MALS), was performed using an Agilent 1200 series LC system with an online Dawn Helios ii system (Wyatt) equipped with a QELS + module (Wyatt) and an Optilab rEX differential refractive index detector (Wyatt). About 100 μl purified protein at ~3.0 mg/ml was auto-injected onto Superdex 75 or a Superdex 200 Increase 10/300 GL column (GE Healthcare) and run at 0.5 ml/min. The molecular masses were analysed with ASTRA 7.3.0.11 (Wyatt). Data were plotted using Prism 8.4.3 (GraphPad Software, Inc). Purified Cdc20^N and Cdc20^N mutants were incubated with Mad1^CTD wild-type or mutants at a 1:1.2 ratio of Mad1^CTD dimer to Cdc20^N.
# pMad1CTD (Mad1CTD pT716) = assay: SEC-MALS, Cdc20N with pMad1CTD; format: binding, human
# Procedure: as §2
# [4] = tested on: Mad1CTD R617E/K619D mutant; assay: SEC-MALS, Cdc20N with Mad1CTD R617E/K619D; format: binding, human; settings: 1:1.2 ratio Mad1CTD dimer to Cdc20N
# Procedure: as §2
# pMad1CTD homodimer = assay: AUC-SE (sedimentation equilibrium) of pMad1CTD and Cdc20N; format: binding, human; settings: for calculated mass of major species (Cdc20N:pMad1CTD): 20 °C, expected 35.7 kDa
# Procedure: Sedimentation equilibrium experiments were carried out in a buffer of 20 mM HEPES pH 7.5, 100 mM NaCl and 1 mM TCEP. Samples were loaded into 12 mm six-sector cells, placed in an An-50Ti rotor and centrifugated at 10,200, 12,200 and 21,000 rpm at 20 °C until equilibrium had been reached using an Optima XL-I analytical ultracentrifuge (Beckman). The data were analysed in SEDPHAT 15.2b[68]. The partial-specific volumes (v-bar) were calculated using Sednterp[69]. The density and viscosity of the buffer were determined with a DMA 4500 M density metre (Anton Parr) and an AMVn viscometer (Anton Paar). Data were plotted with the program GUSSI[70].
# [5] = biological target: T1, Mad1CTD (unphosphorylated); assay: 1H,15N HSQC / CON NMR titration with unphosphorylated Mad1CTD; format: binding; settings: residues 616-660 of Mad1CTD in HSQC; N-terminal half of Cdc20N in CON
# Procedure: (§3) Uniformly-labelled proteins were expressed in M9 minimal media (6 g/L Na2HPO4, 3 g/L KH2PO4, 0.5 g/L NaCl) supplemented with 1.7 g/L yeast nitrogen base without NH4Cl and amino acids (Sigma Y1251). 1 g/L ^15NH4Cl and 4 g/L unlabelled glucose were supplemented for ^15N labelling. For ^13C/ ^15N double-labelled samples, unlabelled glucose was replaced with 3 g/L ^13C-glucose. Prior to all NMR experiments, proteins were dialysed into 20 mM HEPES, pH 7.0, 100 mM NaCl and 1 mM TCEP.
# The following protein concentrations were used in NMR studies: ^1H,^15N HSQC of Mad1^CTD were collected with a 100 µM sample, whereas a 50 µM sample was used for titrations with Cdc20^N and Cdc20^α1. […] To follow the O-to-C conversion of Mad2, the samples were prepared on ice and monitored using BEST ^1H,^15N-TROSY HSQC. […]
# (§4) For binding studies, the relative peak intensities were normalised to the C-terminal residue Ala718 of Mad1^CTD or Gly73 of Cdc20^N and expressed as PIbound/PIfree, with PIfree and PIbound being the peak heights of the free and bound forms, respectively. Weighted chemical shift perturbations were calculated using the equation[63]: Δδ = [(ΔδHNWHN)^2 + (ΔδNWN)^2)^2]^1/2 where ΔδHN and ΔδN are the chemical shift perturbations in ^1H and ^15N dimensions respectively. The weight factors were determined from the average variances of chemical shifts in the BMRB database, where WHN = 1 and WN = 0.16.
# pMad1CTD = assay: 1H,15N HSQC / CON NMR titration with pMad1CTD; format: binding, human; settings: pMad1CTD
# Procedure: as §3
# The following protein concentrations were used in NMR studies: ^1H,^15N HSQC of Mad1^CTD were collected with a 100 µM sample, whereas a 50 µM sample was used for titrations with Cdc20^N and Cdc20^α1. Cdc20^Box1 peptide was added at mM concentrations to minimise dilution during titration. […] Mad1^CTD was concentrated to 3 mM for titrations into Cdc20^N. ^1H,^15N HSQC of Mad2 were collected at 100 µM. All Mad2 NMR samples contain an R133A mutation to prevent Mad2 dimerisation. The C-Mad2 sample additionally contains an L13A mutation which favours the C-Mad2 state. Cdc20^MIM-bound C-Mad2 sample was prepared by adding a 1:2 excess of Cdc20^MIM peptide to an O-Mad2 sample with R133A mutation. To follow the O-to-C conversion of Mad2, the samples were prepared on ice and monitored using BEST ^1H,^15N-TROSY HSQC. The spectra were acquired with 16 scans and a recycle delay of 400 msec, giving an experimental time of 12 min per spectrum.
# Mad1^CTD and Mad2 experiments were performed using an in-house 800 MHz Avance III spectrometer and Cdc20^N experiments were performed using an in-house 700 MHz Avance II + spectrometer, both equipped with triple resonance TCI CryoProbes. To retrieve signals that suffer from exchange broadening, we also utilised the Bruker 950 MHz Avance III spectrometer located at MRC Biomedical NMR Centre (Francis Crick Institute). Mad1^CTD and Mad2 spectra were collected at 298 K. Cdc20^N spectra were collected at 278 K to minimise exchange broadening for the largely disordered Cdc20^N.
# as §4
# [6] = Aggregation or non-specific binding at high concentration in the fluorescence anisotropy assay; format: physicochemical; settings: further titration of Cdc20N to saturation; total fluorescence intensity
# Procedure: as §1
molecule,measurement,setting,value
"Cdc20^N: N-terminal truncation of human Cdc20 (residues 1–73) (protein, left off: His6, N-terminal, cleaved | MBP, N-terminal, cleaved) MAQFAFESDLHSLLQLDAPIPNAPPARWQRKAKEAAGPAPSPMRAANRSHSAGRTPGRTPGKSSSKVQTTPSK",change in fluorescence anisotropy on Cdc20N titration (competition test),[1],increased the fluorescence anisotropy
same,change in fluorescence anisotropy on Cdc20N titration (competition test),[2],increased the fluorescence anisotropy
same,binding by SEC-MALS,[3],did not bind; also recorded: no binding
same,binding by SEC-MALS,pMad1CTD (Mad1CTD pT716); 1:1.2 ratio Mad1CTD dimer to Cdc20N,formed a stable complex
same,observed mass of pMad1CTD:Cdc20N complex,"pMad1CTD (Mad1CTD pT716); SEC-MALS, expected 36 kDa for pMad1CTD dimer with one Cdc20N",38 kDa
same,binding by SEC-MALS,[4],did not bind
same,calculated mass of major species (Cdc20N:pMad1CTD),pMad1CTD homodimer; 20 µM Mad1CTD + 40 µM Cdc20N,32.6 kDa
same,calculated mass of major species (Cdc20N:pMad1CTD),pMad1CTD homodimer; 20 µM Mad1CTD + 80 µM Cdc20N,35.9 kDa
same,stoichiometry on pMad1CTD homodimer,pMad1CTD homodimer; even with four-fold molar excess of Cdc20N,only a single copy of Cdc20^N bound
same,NMR signal attenuation / line broadening,[5],Significant signal attenuation; also recorded: substantial signal attenuation
same,NMR signal attenuation / line broadening,pMad1CTD,more pronounced and extensive; also recorded: More significant signal attenuation
same,aggregation or non-specific binding to the plate,[6],large increases in the total fluorescence intensity indicating aggregation or non-specific binding to the plate
